Data published in patent publication US20260374864 (published 2026).
Substitutions are numbered along the chain they refer to.

B1: CD22-mAb-1 (antibody, V domains shown)
VH: QVQLVQSGAEVKKPGASVKVSCKASGYTFTGYYIHWVRQAPGQGLEWMGWINPNSGGTNYAQKFQGRVTMTRDTSIGTAYMELSRLRSDDTAIYYCTREDTWNYIDYWGQGTLVTVSS
VL: DIQMTQSPSSLSASVGDRVTITCRASQSISSHLNWYQQKPGKAPKLLIYAASSLHSGVPSRFSGSGSGTDFTLTISSLQPEDFATYCCQQSYSTPRTFGQGTKVEIK
B2: CD22-mAb-3 (antibody, V domains shown)
VH: QVTLRESGPALVKTTQTLTLTCTFSGFSLSTSGMCVSWIRQPPGKALEWLALIDWDDDKYYSTSLKTRLTISKDTSKSQVVLTMTSMDPVDTATYYCARIRYIYGYDYFDYWGQGTLVTVSS
VL: B1 VL with S28R, H32Q, H55Q, D70E, F83I, S91T, T94K, R96I, K103R, V104L
B3: CD22-mAb-2 (antibody, V domains shown)
VH: QVTLRESGPALVKPTQTLTLTCTFSGISLTTSGMCVSWIRQPPGKALEWLALIDWDGDNYYSTSLKTRLTISKDTSKNQVVLTMASMDPVDTATYYCARMGYTYGYDAFDIWGQGTMVTVSS
VL: EIVLTQSPEFQSVTPTEKVTITCRASQSIGSLLHWYQQKPDQSPKLLIKFASQSLSGVPSRFSGSGSGTDFTLTINSLEAEDAATYYCHQSRSLPFTFGPGTKVDIN
B4: CD22-mAb-4 (antibody, V domains shown)
VH: QVQLVESGGGVVQPGRSLRLSCAASGFTFSSYGMHWVRQAPGKGLEWVAIIYYDGSKKYYADSVKGRFTISRDNSKNTLYLQMNSLRAEDTAVYYCARELTGDAFDIWGQGTKVTVSS
VL: EIVLTQSPDFQSVTPKEKVTITCRASQSIGSSLHWYQQKPDQSPKLLIKYASQSFSGVPSKFIGSGSGTDFTLTINSLEAEDAATFYCHQSSTLPYTFGQGTKLEIK

Target: human CD22, His-tagged recombinant (human, UniProt P20273)
Experiment: SPR

human CD22, His-tagged recombinant, sequence (P20273 20-687): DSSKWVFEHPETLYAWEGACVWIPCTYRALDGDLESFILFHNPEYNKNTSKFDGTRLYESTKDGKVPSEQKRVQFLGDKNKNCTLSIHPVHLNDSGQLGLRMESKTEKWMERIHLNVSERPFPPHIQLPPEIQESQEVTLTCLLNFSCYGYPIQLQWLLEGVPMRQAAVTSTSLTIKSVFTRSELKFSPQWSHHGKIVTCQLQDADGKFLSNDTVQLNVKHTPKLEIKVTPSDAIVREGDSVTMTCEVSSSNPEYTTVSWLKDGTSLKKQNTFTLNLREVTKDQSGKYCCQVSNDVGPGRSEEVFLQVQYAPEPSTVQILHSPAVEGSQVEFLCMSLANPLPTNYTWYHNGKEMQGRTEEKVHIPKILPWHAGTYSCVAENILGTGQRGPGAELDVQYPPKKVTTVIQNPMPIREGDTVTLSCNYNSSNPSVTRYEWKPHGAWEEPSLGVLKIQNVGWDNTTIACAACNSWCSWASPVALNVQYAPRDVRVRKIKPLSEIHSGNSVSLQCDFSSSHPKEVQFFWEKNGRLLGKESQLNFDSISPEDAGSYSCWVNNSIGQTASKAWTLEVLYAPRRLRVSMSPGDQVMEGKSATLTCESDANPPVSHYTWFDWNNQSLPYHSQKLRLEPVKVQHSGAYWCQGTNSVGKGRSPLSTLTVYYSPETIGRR

Row | Kd [nM] | Binder
1 | 0.0377 | B1
2 | 1.7 | B2
3 | 0.358 | B3
4 | 2.59 | B4
